Experiments:
P-selectin/Fc [1] = biological target: T1, P-selectin/Fc (human, UniProt P16109 42-771); assay: BLI; rhVim or rhRod (50 μg/mL) immobilised by amine coupling on AR2G sensors; P-sel/Fc or PSGL-1/Fc as analyte, 0–1,000 nM; DPBS; steady state analysis; settings: both partners purified
T1 construct: P-selectin; Labelled with IR800CW dye for the SPOT-Vim array; No catalogue number printed; also called P-sel/Fc; P-sel/Fc-IR800; source: bought: R & D Systems
T1 sequence (looked up): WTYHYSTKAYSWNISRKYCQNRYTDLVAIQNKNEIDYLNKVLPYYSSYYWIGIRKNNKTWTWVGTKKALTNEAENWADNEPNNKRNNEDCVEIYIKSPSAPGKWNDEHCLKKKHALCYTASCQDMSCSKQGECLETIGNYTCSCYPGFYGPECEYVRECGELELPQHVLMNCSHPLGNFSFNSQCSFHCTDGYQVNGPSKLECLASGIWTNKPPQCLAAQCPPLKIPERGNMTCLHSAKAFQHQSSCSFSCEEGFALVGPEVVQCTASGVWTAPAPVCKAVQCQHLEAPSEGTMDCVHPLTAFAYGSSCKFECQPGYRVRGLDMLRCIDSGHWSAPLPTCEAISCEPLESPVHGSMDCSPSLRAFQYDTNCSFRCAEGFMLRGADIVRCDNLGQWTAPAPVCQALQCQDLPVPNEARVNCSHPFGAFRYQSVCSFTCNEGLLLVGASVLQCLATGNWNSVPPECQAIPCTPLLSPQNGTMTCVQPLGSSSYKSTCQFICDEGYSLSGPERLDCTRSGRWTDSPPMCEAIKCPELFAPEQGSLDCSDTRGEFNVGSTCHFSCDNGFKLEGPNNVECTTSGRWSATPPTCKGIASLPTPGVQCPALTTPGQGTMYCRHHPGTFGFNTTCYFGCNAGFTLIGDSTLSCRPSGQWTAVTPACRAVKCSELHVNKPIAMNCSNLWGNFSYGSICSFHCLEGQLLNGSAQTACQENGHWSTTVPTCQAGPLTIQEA

P-selectin/Fc [2] = biological target: T1, P-selectin/Fc; assay: BLI; blocking: P-sel/Fc on AR2G sensors placed into rhRod 0–1,000 nM (association, then dissociation in DPBS), then into 500 nM PSGL-1/Fc (Sino Biological); PSGL-1/Fc response against rhRod concentration, non-linear regression; in duplicate; settings: both partners purified
P-selectin/Fc [3] = biological target: T1, P-selectin/Fc; assay: BLI; P-sel/Fc or PSGL-1/Fc (10 μg/mL) immobilised on anti-human IgG Fc (AHC) sensors; rhVim or rhRod as analyte, 0–1,000 nM; DPBS; steady state analysis; settings: both partners purified
P-selectin/Fc [4] = biological target: T1, P-selectin/Fc; assay: BLI; separate set of experiments: room temperature aliquot of rhRod (1,000 nM) on immobilized P-sel/Fc, performed as above; DPBS; settings: both partners purified
[5] = biological target: the molecule itself; assay: SDS-PAGE in non-reducing and reducing conditions, Coomassie stain; purified protein; non-reduced against reduced
P-selectin/Fc [6] = biological target: T1, P-selectin/Fc; assay: BLI; P-sel/Fc immobilised on AR2G sensors; PSGL-1/Fc (Sino Biological) as analyte, 0–1,000 nM; DPBS; in duplicate; settings: both partners purified

B1: recombinant human rod domain of vimentin (domain or fragment)
chain: not shown
notes: vimentin, human, rod domain, aa residues 96-407 (base pairs 717-1,652 of NM_00380.3 as printed); 38.2 kDa used for concentration; Labelled with IR800CW dye for the SPOT-Psel array; Dimerized in non-reducing SDS-PAGE. ΔrhRod is the same protein after 10 minutes in boiling water; also called rhRod; rod domain of recombinant vimentin
Kd (P-selectin/Fc [1]): 41 ± 6 nM | IC50 (P-selectin/Fc [2]): 20 nM | Kd (P-selectin/Fc [3]): 10 ± 0.6 nM | Kd (P-selectin/Fc [4]): 280 ± 61 nM | binding result [5]: binds

B2: recombinant human PSGL-1/Fc (Sino Biological Inc.) (Fc fusion, UniProt Q14242 42-320, looked up)
chain: QATEYEYLDYDFLPETEPPEMLRNSTDTTPLTGPGTPESTTVEPAARRSTGLDAGGAVTELTTELANMGNLSTDSAAMEIQTTQPAATEAQTTQPVPTEAQTTPLAATEAQTTRLTATEAQTTPLAATEAQTTPPAATEAQTTQPTGLEAQTTAPAAMEAQTTAPAAMEAQTTPPAAMEAQTTQTTAMEAQTTAPEATEAQTTQPTATEAQTTPLAAMEALSTEPSATEALSMEPTTKRGLFIPFSVSSVTHKGIPMAASNLSVNYPVGAPDHISVKQC
notes: P-selectin glycoprotein ligand-1, human; No catalogue number printed; source: bought: Sino Biological Inc
Kd (P-selectin/Fc [6]): 240 ± 67 nM

— article PMC7553327, “The vimentin rod domain blocks P-selectin-P-selectin glycoprotein ligand 1 interactions to attenuate leukocyte adhesion to inflamed endothelium” (PLoS ONE, 2020)
